The sequences below were run on Escherichia coli TOP10 (assay: shrunken log2 fold change of peptide-encoding DNA abundance (4.5 h post-induction vs induction); higher = less antimicrobial activity (less host growth inhibition)). Settings: time post-induction: 4.5 h; library: site-saturation at positions 5, 18, 19, 20.
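Note: peptides expressed intracellularly from a pBAD plasmid library in pooled LB shake-flask culture, induced with 0.3% L-arabinose, DNA abundance read by NGS, three biological replicates, DESeq2 with apeglm shrinkage.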

| Sequence | shrunken log2 fold change |
| --- | --- |
| RRIRWRPPRLPRPRPRPQRLPRP | 0.159 |
| RRIRRRPPRLPRPRPRPLFLPRP | -0.173 |
| RRIRARPPRLPRPRPRPYQVPRP | -0.327 |
| RRIRDRPPRLPRPRPRPRQYPRP | -0.332 |
| RRIRYRPPRLPRPRPRPMLWPRP | -0.0139 |
| RRIRMRPPRLPRPRPRPSTWPRP | 0.081 |
| RRIRWRPPRLPRPRPRPRRMPRP | 0.215 |
| RRIRIRPPRLPRPRPRPCNYPRP | -0.103 |
| RRIRGRPPRLPRPRPRPFPWPRP | 0.383 |
| RRIRPRPPRLPRPRPRPNDFPRP | -0.438 |
| RRIRRRPPRLPRPRPRPQRNPRP | 0.245 |
| RRIRMRPPRLPRPRPRPRKCPRP | 0.0129 |
| RRIRSRPPRLPRPRPRPLKMPRP | 0.127 |
| RRIRLRPPRLPRPRPRPHTAPRP | -0.00187 |
| RRIRMRPPRLPRPRPRPKWIPRP | -0.124 |
| RRIRERPPRLPRPRPRPWMRPRP | 0.079 |
| RRIRDRPPRLPRPRPRPTPVPRP | 0.405 |
| RRIRRRPPRLPRPRPRPNRGPRP | -0.0468 |
| RRIRQRPPRLPRPRPRPVHNPRP | -0.121 |
| RRIRIRPPRLPRPRPRPLAWPRP | 0.0118 |
| RRIRIRPPRLPRPRPRPMELPRP | -0.000689 |
| RRIRWRPPRLPRPRPRPCYYPRP | -0.0954 |
| RRIRDRPPRLPRPRPRPHIMPRP | -0.981 |
| RRIRCRPPRLPRPRPRPRITPRP | -0.212 |
| RRIRSRPPRLPRPRPRPCAQPRP | 0.00151 |

| Sequence | shrunken log2 fold change |
| --- | --- |
| RRIRDRPPRLPRPRPRPLRGPRP | 0.112 |
| RRIRGRPPRLPRPRPRPSMMPRP | 0.0755 |
| RRIRIRPPRLPRPRPRPIHGPRP | -0.0135 |
| RRIRERPPRLPRPRPRPQPPPRP | 0.104 |
| RRIRQRPPRLPRPRPRPPNMPRP | -0.089 |
| RRIRSRPPRLPRPRPRPLTVPRP | -0.216 |
| RRIRERPPRLPRPRPRPHFWPRP | 0.16 |
| RRIRVRPPRLPRPRPRPHYNPRP | -0.366 |
| RRIRERPPRLPRPRPRPANAPRP | -0.0563 |
| RRIRWRPPRLPRPRPRPVSYPRP | -0.131 |
| RRIRLRPPRLPRPRPRPSVFPRP | -0.364 |
| RRIRDRPPRLPRPRPRPHEYPRP | -0.01 |
| RRIRPRPPRLPRPRPRPTLNPRP | 0.0863 |
| RRIRVRPPRLPRPRPRPRLSPRP | 0.0321 |
| RRIRARPPRLPRPRPRPMPLPRP | -0.0326 |
| RRIRTRPPRLPRPRPRPPCLPRP | -0.0659 |
| RRIRVRPPRLPRPRPRPVISPRP | -0.509 |
| RRIRVRPPRLPRPRPRPPWTPRP | 0.223 |
| RRIRCRPPRLPRPRPRPRWCPRP | -0.131 |
| RRIRQRPPRLPRPRPRPPPIPRP | 0.467 |
| RRIRSRPPRLPRPRPRPFKNPRP | -0.378 |
| RRIRPRPPRLPRPRPRPSISPRP | -0.37 |
| RRIRDRPPRLPRPRPRPPKEPRP | -0.2 |
| RRIRWRPPRLPRPRPRPQKSPRP | 0.0128 |
| RRIRIRPPRLPRPRPRPCMAPRP | -0.335 |

| Sequence | shrunken log2 fold change |
| --- | --- |
| RRIRNRPPRLPRPRPRPNPNPRP | 0.0656 |
| RRIRFRPPRLPRPRPRPMFNPRP | -0.797 |
| RRIRVRPPRLPRPRPRPFTVPRP | -0.105 |
| RRIRYRPPRLPRPRPRPFPRPRP | -0.0964 |
| RRIRMRPPRLPRPRPRPSTPPRP | 0.0303 |
| RRIRIRPPRLPRPRPRPHVMPRP | -0.492 |
| RRIRNRPPRLPRPRPRPTLEPRP | 0.041 |
| RRIRARPPRLPRPRPRPEFGPRP | 0.874 |
| RRIRLRPPRLPRPRPRPCKVPRP | 0.00893 |
| RRIRKRPPRLPRPRPRPFKAPRP | -0.111 |
| RRIRTRPPRLPRPRPRPWAIPRP | -0.205 |
| RRIRDRPPRLPRPRPRPPLHPRP | 0.177 |
| RRIRSRPPRLPRPRPRPRKYPRP | -0.312 |
| RRIRPRPPRLPRPRPRPIFCPRP | -0.0959 |
| RRIRIRPPRLPRPRPRPCGVPRP | -0.153 |
| RRIRARPPRLPRPRPRPIGIPRP | 0.0254 |
| RRIRTRPPRLPRPRPRPQVHPRP | -0.221 |
| RRIRDRPPRLPRPRPRPVSHPRP | 0.00713 |
| RRIRWRPPRLPRPRPRPNGTPRP | 1.67 |
| RRIRHRPPRLPRPRPRPPQPPRP | 0.216 |
| RRIRWRPPRLPRPRPRPKHMPRP | -0.063 |
| RRIRWRPPRLPRPRPRPVMIPRP | 0.0436 |
| RRIRMRPPRLPRPRPRPEEYPRP | 0.0514 |
| RRIRKRPPRLPRPRPRPRDYPRP | 0.0161 |
| RRIRFRPPRLPRPRPRPKWFPRP | 0.045 |

| Sequence | shrunken log2 fold change |
| --- | --- |
| RRIRNRPPRLPRPRPRPDWQPRP | 0.184 |
| RRIRRRPPRLPRPRPRPPEIPRP | -0.17 |
| RRIRCRPPRLPRPRPRPDSIPRP | -0.0365 |
| RRIRERPPRLPRPRPRPEFNPRP | -0.633 |
| RRIRTRPPRLPRPRPRPCATPRP | -0.0683 |
| RRIRCRPPRLPRPRPRPCWPPRP | -0.0967 |
| RRIRARPPRLPRPRPRPHPGPRP | 0.219 |
| RRIRKRPPRLPRPRPRPMIFPRP | -0.132 |
| RRIRCRPPRLPRPRPRPHVPPRP | -0.0309 |
| RRIRKRPPRLPRPRPRPNYQPRP | -0.0219 |
| RRIRARPPRLPRPRPRPDITPRP | 0.491 |
| RRIRRRPPRLPRPRPRPCMQPRP | 0.23 |
| RRIRKRPPRLPRPRPRPSPQPRP | 0.219 |
| RRIRCRPPRLPRPRPRPHAHPRP | -0.182 |
| RRIRLRPPRLPRPRPRPQLVPRP | 0.144 |
| RRIRFRPPRLPRPRPRPWGGPRP | 0.162 |
| RRIRRRPPRLPRPRPRPWYEPRP | -0.16 |
| RRIRSRPPRLPRPRPRPAIRPRP | -0.0385 |
| RRIRYRPPRLPRPRPRPSQKPRP | -0.359 |
| RRIRMRPPRLPRPRPRPQLVPRP | 0.00959 |
| RRIRGRPPRLPRPRPRPQEEPRP | 0.0943 |
| RRIRQRPPRLPRPRPRPYHPPRP | -0.531 |
| RRIRLRPPRLPRPRPRPRHQPRP | -0.254 |
| RRIRWRPPRLPRPRPRPCASPRP | -0.0152 |
| RRIRVRPPRLPRPRPRPIDPPRP | -0.0131 |

| Sequence | shrunken log2 fold change |
| --- | --- |
| RRIRGRPPRLPRPRPRPAMTPRP | 1.48 |
| RRIRQRPPRLPRPRPRPDWKPRP | 0.0112 |
| RRIRYRPPRLPRPRPRPANRPRP | 0.0126 |
| RRIRLRPPRLPRPRPRPMMHPRP | 0.0259 |
| RRIRKRPPRLPRPRPRPQQVPRP | -0.0532 |
| RRIRTRPPRLPRPRPRPNNFPRP | -0.381 |
| RRIRWRPPRLPRPRPRPILEPRP | -0.548 |
| RRIRLRPPRLPRPRPRPCMYPRP | -0.674 |
| RRIRFRPPRLPRPRPRPTRYPRP | 0.172 |
| RRIRTRPPRLPRPRPRPLKMPRP | -0.0458 |
| RRIRIRPPRLPRPRPRPHLHPRP | -0.784 |
| RRIRIRPPRLPRPRPRPWLTPRP | -0.096 |
| RRIRWRPPRLPRPRPRPHTAPRP | -0.0505 |
| RRIRVRPPRLPRPRPRPCDAPRP | 0.121 |
| RRIRPRPPRLPRPRPRPGNWPRP | 0.0527 |
| RRIRWRPPRLPRPRPRPFRRPRP | -0.134 |
| RRIRYRPPRLPRPRPRPKLAPRP | -0.0901 |
| RRIRSRPPRLPRPRPRPWGKPRP | -0.109 |
| RRIRWRPPRLPRPRPRPMYLPRP | -0.507 |
| RRIRSRPPRLPRPRPRPHCKPRP | -0.397 |
| RRIRCRPPRLPRPRPRPQRPPRP | 0.166 |
| RRIRFRPPRLPRPRPRPQRTPRP | -0.101 |
| RRIRERPPRLPRPRPRPQEGPRP | 0.0271 |
| RRIRGRPPRLPRPRPRPMVMPRP | 0.342 |
| RRIRRRPPRLPRPRPRPNPMPRP | 0.359 |

| Sequence | shrunken log2 fold change |
| --- | --- |
| RRIRYRPPRLPRPRPRPPRAPRP | 0.403 |
| RRIRMRPPRLPRPRPRPIISPRP | -0.0891 |
| RRIRHRPPRLPRPRPRPVPNPRP | -8.36e-05 |
| RRIRARPPRLPRPRPRPDYMPRP | -0.0383 |
| RRIRCRPPRLPRPRPRPDNPPRP | -0.137 |
| RRIRGRPPRLPRPRPRPSEVPRP | 0.425 |
| RRIRMRPPRLPRPRPRPAIRPRP | -0.0476 |
| RRIRQRPPRLPRPRPRPACPPRP | 0.0154 |
| RRIRKRPPRLPRPRPRPQNRPRP | -0.169 |
| RRIRARPPRLPRPRPRPEWEPRP | 0.877 |
| RRIRFRPPRLPRPRPRPWMVPRP | -0.227 |
| RRIRQRPPRLPRPRPRPQWYPRP | -0.0123 |
| RRIRTRPPRLPRPRPRPPPTPRP | 0.828 |
| RRIRPRPPRLPRPRPRPTHKPRP | 0.283 |
| RRIRARPPRLPRPRPRPSDKPRP | -0.197 |
| RRIRIRPPRLPRPRPRPATEPRP | 0.421 |
| RRIRFRPPRLPRPRPRPKHMPRP | -0.52 |
| RRIRDRPPRLPRPRPRPAMRPRP | 0.415 |
| RRIRKRPPRLPRPRPRPDDNPRP | 1.02 |
| RRIRRRPPRLPRPRPRPRRKPRP | 0.43 |
| RRIRIRPPRLPRPRPRPWLRPRP | -0.358 |
| RRIRARPPRLPRPRPRPDCLPRP | 0.948 |
| RRIRKRPPRLPRPRPRPPVRPRP | 0.265 |
| RRIRGRPPRLPRPRPRPFSSPRP | 0.193 |
| RRIRSRPPRLPRPRPRPPWWPRP | 0.828 |
